Test results from patent US20160340443A1.

How the values were obtained:
[1] = biological target: soluble single-chain FcRn (human) (UniProt P55899); test: SPR (BIACORE X), scFcRn amine-coupled to CM5 chip, pH 6.0, two-state reaction model, mean of three runs
[2] = biological target: soluble single-chain FcRn (human) (UniProt P55899); test: SPR (BIACORE X), scFcRn amine-coupled to CM5 chip, antibody as analyte 25-400 nM, pH 6.0, two-state reaction model, Run 1
[3] = biological target: soluble single-chain FcRn (human) (UniProt P55899); test: SPR (BIACORE X), scFcRn amine-coupled to CM5 chip, antibody as analyte 25-400 nM, pH 6.0, two-state reaction model, Run 2
[4] = biological target: soluble single-chain FcRn (human) (UniProt P55899); test: SPR (BIACORE X), scFcRn amine-coupled to CM5 chip, antibody as analyte 25-400 nM, pH 6.0, two-state reaction model, Run 3

Kd [1]: 16.3 nM
Kd [2]: 15 nM
Kd [3]: 17.9 nM
Kd [4]: 15.8 nM
Substance: epratuzumab (antibody)
